Measured values from patent publication US20220372137A1 (OXFORD BIOTHERAPEUTICS, published 2022).

T1: human SLAMF6 expressed on the cell surface (Raji cells, human PBMCs, T cells) (human, UniProt Q96DU3 22-332)
T1 construct: Endogenous SLAMF6 on human cells; also called NTB-A; CD352
T1 sequence: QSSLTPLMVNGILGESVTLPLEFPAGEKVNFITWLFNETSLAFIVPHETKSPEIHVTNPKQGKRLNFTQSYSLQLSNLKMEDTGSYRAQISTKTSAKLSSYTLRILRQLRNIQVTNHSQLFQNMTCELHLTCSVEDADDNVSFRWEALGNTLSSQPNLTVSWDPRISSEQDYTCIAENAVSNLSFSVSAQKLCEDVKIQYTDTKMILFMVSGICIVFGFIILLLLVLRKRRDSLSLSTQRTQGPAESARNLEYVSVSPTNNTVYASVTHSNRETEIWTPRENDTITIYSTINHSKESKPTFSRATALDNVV

T2: Antigen flowed over the chip in the Biacore experiment (SLAMF6, construct not stated) (Homo sapiens (Human), UniProt Q96DU3 22-226, limits assumed)
T2 sequence: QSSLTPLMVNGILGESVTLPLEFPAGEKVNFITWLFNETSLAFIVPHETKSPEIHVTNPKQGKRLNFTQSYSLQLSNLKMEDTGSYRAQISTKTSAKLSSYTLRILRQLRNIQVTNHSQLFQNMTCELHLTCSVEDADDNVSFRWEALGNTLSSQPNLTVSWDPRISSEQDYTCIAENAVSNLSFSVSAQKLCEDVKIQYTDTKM

B1: parental murine 1B3 antibody (antibody, V domains shown)
VH: QVQLKQSGAELVRPGTSVKVSCKASGYAFTNYLIEWVKQRPGQGLEWIGVINPGSGGTNYNEKFKDKATLTADKSSNTAYMQLSSLTSDDSAVYFCARRGWDYFDYWGQGTTLTVSS
VL: QIVLTQSPALMSTSPGEKVTMTCSASSSVSYIYWFQQKPGSSPKPWIYRTSNLASGVPARFSGSGSGTSYSLTISSMEAEDAATYYCQQWDNNPYTFGGGTKLEIK
notes: also called antibody 1B3; mouse 1B3
B2: humanised antibody Hu_1B3 (antibody, human IgG1, kappa, L234A L235A, V domains shown)
VH: QVQLVQSGAEVKKPGASVKVSCKASGYAFTNYLIEWVRQAPGQGLEWIGVINPGSGGTNYNEKFQGRVTLTADKSISTAYMELSRLRSDDTAVYYCARRGWDYFDYWGQGTLVTVSS
VL: DIQLTQSPSSLSASVGDRVTITCQASQDVSYIYWYQQKPGKAPKPWIYRTSNLATGVPSRFSGSGSGTDYTFTISSLQPEDIATYYCQQWDNNPYTFGQGTKLEIKR
notes: It was captured or detected with anti-human IgG and compared with a human IgG1 isotype control; also called humanised 1B3 antibody; humanized Hu_1B3 antibody

Tests used:
[1] = molecular target: T1, human SLAMF6 expressed on the cell …; assay: flow cytometry on SLAMF6-expressing Raji cells, goat anti-mouse secondary antibody
Experimental: […] Raji cells were placed in each well of a 96 well plate and washed 1× with FACS buffer (DPBS, 2% FBS). The cells were pelleted by spinning for 5 min at 1200 rpm. The pellet was washed 1× with FACS buffer (DPBS, 2% FBS) and again pelleted by spinning for 5 min at 1200 rpm and resuspended in FACS buffer. The test antibody were diluted to 30 nM/l in FACS buffer and increasing amounts as shown in FIG. 4 added to each well which was incubated for 30 min on ice. The cells were then washed 1× with FACS buffer (DPBS, 2% FBS) and pelleted, washed and resuspended in FACS buffer. Secondary goat-anti-mouse antibody was diluted to 1 μg·ml and 100 μl added to each well the plate was incubated for 30 min on ice then washed 1× with FACS buffer (DPBS, 2% FBS). The cells were pelleted and resuspended in 200 ul FACS buffer. Samples were read using the Guava Easycyte Plus HT flow cytometer and results analysed using the Guava Cytosoft software suite.

[2] = molecular target: T1, human SLAMF6 expressed on the cell …; assay: cell-based or functional assay
[3] = molecular target: T2, Antigen flowed over the chip in the …; assay: SPR, Biacore T-200 at 25 °C; antibody captured on goat anti-human IgG, antigen flowed over
Experimental: Flow cells 2, 3 and 4 of the CM5 chip were coated with maximum amounts 500 RU of goat anti-human IgG. Test Ab were captured on flow cells 2, 3 and 4. Flow cell 1 was kept blank and used for reference subtraction. Antigen was flowed over the chip. Binding of antigen to the antibodies was monitored in real time. From the observed kₒₙ and koff, KD was determined.

[4] = molecular target: T1, human SLAMF6 expressed on the cell …; assay: flow cytometry on human PBMCs pre-blocked with 300 nM SLAMF6 ECD-mIgG2a Fc fusion protein, goat anti-human IgG-RPE secondary antibody
Experimental: Cryopreserved human PBMCs were thawed and washed once by suspension in FACS buffer (DPBS with 2% FCS) followed by centrifugation for 5 minutes at 1200 rpm to pellet cells and discarding of supernatant (same method used for subsequent washes). The cells were dispensed into a 96-well assay plate at 100,000 cells per well in FACS buffer before being washed once more. Cells were then blocked with SLAMF6 ECD-mIgG2a Fc fusion protein at 100 nM or 300 nM for 1 hr for SLAMF6 receptor blocking in 100 μl FACS buffer on ice for 1 hour before being washed. Humanized Hu_1B3 antibody or human IgG1 Isotype control at top concentration of 10 nM and a titration by serial dilution of 1 in 3, was then added to the blocked PBMCs and the cells were incubated for 1 hr on ice before being washed twice. The secondary antibody, goat anti-human-IgG-RPE (Southern Biotech, Ref: 2040-05) at a concentration of 1 μg/mL in FACS buffer, was then applied to the treated cells for 30 minutes on ice. […] Mean fluorescence intensity for the secondary antibody was determined for each sample using an Attune NxT Flow Cytometer (ThermoFischer Scientific) in a 96-well plate format according to industry standard protocols, and the raw data was analyzed using FlowJo analysis software.

EC50 (read off the curve) [1] [nM] | Granzyme B release from activated T cells (plate-coated antibody plus OKT3, ELISA), EC50 [2] [µg/mL] | upregulation of intracellular perforin in CD8+ T cells (flow cytometry), EC50 [2] [µg/mL] | Ka [3] [M⁻¹] | Kd [3] [nM] | koff [3] [s⁻¹] | kon [3] [M⁻¹ s⁻¹] | EC50 (read off the curve) [4] [nM] | Binder
~0.2 |  |  |  |  |  |  |  | B1
 | 0.51 | 0.44 | 5.8e+08 | 1.72 | 0.000932 | 541000 | ~0.4 | B2
